Test results from patent publication US20210009686A1 (published 2021).

Target: CLDN18.2
Experiment: FACS binding, KATO III cells

B1: IMAB362 (antibody, V domains shown)
VH: QVQLQQPGAELVRPGASVKLSCKASGYTFTSYWINWVKQRPGQGLEWIGNIYPSDSYTNYNQKFKDKATLTVDKSSSTAYMQLSSPTSEDSAVYYCTRSWRGNSFDYWGQGTTLTVSS
VL: DIVMTQSPSSLTVTAGEKVTMSCKSSQSLLNSGNQKNYLTWYQQKPGQPPKLLIYWASTRESGVPDRFTGSGSGTDFTLTISSVQAEDLAVYYCQNDYSYPFTFGSGTKLEIKR
EC50: 0.67 µg/mL
